Data from patent US9290800.

Target: T1, M2Y DNA polymerase-His10 (polymerase A) (Bacteriophage M2Y) (UniProt P19894)
T1 sequence: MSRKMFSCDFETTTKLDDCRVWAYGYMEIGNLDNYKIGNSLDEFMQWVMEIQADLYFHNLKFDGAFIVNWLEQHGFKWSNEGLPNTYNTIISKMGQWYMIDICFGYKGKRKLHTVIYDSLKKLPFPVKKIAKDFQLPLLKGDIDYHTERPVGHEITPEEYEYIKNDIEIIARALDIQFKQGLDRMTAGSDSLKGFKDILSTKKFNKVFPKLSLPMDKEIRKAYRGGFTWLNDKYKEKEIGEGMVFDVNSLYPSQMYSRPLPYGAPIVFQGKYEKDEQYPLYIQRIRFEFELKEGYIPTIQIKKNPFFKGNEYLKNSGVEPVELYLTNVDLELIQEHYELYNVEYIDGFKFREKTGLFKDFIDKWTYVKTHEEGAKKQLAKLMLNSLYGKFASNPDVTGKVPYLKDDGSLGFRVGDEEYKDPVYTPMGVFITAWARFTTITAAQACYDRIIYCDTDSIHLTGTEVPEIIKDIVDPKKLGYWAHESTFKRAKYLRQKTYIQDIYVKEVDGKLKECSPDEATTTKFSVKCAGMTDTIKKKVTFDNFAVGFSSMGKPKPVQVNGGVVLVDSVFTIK
Settings: average amplification per round over two rounds

Substance: FMR1 genomic fragment SMRTbell
- activity: 177 fold
